The numbers were not newly measured in PMC8695629, which cites them from elsewhere.

The target of data set [1] is DOT1L 10-mer peptide (Homo sapiens) (UniProt Q8TEK3).
In data set [2] the target is DOT1L 7-mer peptide (Homo sapiens) (UniProt Q8TEK3). Description: fluorescence polarization.
A further data set has as its target BCOR (Homo sapiens) (UniProt Q6W2J9).
A further data set deals with CBX8 (Homo sapiens) (UniProt Q9HC52).
UniProt Q9HC52, sequence (Q9HC52 whole entry A335V): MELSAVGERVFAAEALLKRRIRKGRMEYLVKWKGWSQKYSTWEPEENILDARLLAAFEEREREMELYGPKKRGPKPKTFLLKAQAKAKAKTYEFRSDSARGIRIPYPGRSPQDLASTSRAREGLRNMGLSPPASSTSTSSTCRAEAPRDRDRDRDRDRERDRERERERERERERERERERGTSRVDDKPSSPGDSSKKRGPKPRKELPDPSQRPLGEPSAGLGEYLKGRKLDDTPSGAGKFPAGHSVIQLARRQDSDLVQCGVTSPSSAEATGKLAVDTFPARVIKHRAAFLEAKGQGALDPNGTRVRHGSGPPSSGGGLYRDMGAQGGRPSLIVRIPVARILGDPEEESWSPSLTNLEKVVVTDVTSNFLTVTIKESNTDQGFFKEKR

UniProt Q6W2J9, sequence (Q6W2J9 whole entry): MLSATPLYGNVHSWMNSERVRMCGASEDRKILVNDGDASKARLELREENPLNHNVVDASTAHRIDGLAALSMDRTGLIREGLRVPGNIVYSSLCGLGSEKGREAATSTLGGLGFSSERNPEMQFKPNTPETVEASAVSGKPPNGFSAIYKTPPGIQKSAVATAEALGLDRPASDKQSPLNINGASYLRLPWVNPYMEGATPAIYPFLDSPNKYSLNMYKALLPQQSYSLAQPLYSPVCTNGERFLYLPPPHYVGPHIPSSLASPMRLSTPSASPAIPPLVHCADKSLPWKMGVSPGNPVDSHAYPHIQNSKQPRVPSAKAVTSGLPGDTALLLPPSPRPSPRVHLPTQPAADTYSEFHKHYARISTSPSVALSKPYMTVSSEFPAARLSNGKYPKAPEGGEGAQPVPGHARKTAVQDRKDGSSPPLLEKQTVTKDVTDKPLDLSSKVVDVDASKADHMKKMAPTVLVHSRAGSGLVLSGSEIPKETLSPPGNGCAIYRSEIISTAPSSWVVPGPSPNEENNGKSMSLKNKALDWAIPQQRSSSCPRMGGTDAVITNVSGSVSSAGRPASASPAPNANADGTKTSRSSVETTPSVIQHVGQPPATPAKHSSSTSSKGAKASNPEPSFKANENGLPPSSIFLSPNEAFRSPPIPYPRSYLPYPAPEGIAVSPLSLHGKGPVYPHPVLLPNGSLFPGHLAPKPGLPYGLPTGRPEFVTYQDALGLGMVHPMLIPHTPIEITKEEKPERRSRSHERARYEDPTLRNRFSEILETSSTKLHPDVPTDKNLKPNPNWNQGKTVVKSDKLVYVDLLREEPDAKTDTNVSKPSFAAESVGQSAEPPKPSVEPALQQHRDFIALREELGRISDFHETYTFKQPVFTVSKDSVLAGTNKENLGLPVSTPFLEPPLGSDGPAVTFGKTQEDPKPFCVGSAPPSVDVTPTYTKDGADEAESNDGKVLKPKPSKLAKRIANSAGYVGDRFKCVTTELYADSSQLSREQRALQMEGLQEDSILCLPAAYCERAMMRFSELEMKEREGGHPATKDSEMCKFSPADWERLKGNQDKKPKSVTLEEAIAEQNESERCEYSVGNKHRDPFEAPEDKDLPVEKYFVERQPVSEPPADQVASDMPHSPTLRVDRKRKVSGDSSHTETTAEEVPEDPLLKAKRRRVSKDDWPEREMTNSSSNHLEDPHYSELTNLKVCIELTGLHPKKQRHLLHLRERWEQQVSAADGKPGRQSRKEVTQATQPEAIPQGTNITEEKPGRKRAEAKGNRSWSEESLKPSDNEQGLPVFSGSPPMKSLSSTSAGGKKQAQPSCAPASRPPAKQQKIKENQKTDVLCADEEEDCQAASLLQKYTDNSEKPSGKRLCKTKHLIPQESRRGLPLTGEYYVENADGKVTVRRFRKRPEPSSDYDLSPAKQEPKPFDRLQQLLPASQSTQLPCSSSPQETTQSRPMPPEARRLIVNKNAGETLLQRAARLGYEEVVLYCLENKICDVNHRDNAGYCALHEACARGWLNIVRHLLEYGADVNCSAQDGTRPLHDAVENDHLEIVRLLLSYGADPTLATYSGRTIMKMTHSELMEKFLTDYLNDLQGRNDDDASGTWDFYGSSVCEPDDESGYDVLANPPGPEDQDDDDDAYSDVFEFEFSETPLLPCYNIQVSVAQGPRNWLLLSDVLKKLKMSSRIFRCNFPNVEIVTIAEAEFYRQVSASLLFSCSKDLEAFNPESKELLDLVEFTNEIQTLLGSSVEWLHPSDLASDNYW

For orientation: Kd means a measure of binding affinity in units of concentration. As a reminder, the Ki is a dissociation constant, usually derived from enzyme kinetics or from competition with a known ligand. Regarding MLLT3 (AF9) AHD (from UniProt P42568), the Kd in data set [1] is 19 nM; in the data set with BCOR (Homo sapiens), over 3000 nM; in the data set with CBX8 (Homo sapiens) it was 12 nM. Further, the Ki in data set [2] was 160 nM.
